The values below come from patent US20110113509, “RATIONALLY-DESIGNED MEGANUCLEASES FOR MAIZE GENOME ENGINEERING” (PRECISION BIOSCIENCES, INC., published 2011).

Residue numbers refer to the chain shown, from its start.

For data set [1], the target named is T1, LIG-34 meganuclease (Artificial Sequence (derived from …)).
T1 chain: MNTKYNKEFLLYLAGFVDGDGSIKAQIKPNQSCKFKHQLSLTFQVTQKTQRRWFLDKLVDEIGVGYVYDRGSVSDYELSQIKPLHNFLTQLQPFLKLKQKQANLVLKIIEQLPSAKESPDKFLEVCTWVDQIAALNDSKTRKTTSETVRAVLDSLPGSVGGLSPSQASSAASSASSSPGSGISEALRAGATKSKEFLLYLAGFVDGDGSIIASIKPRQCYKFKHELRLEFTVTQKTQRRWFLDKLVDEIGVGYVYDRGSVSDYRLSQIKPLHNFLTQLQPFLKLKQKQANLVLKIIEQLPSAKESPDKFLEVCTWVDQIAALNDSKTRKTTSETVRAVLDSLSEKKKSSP
Put plainly: cleavage_in_vitro; C50, enzyme to cut 50% of 10 nM linearized pUC19 substrate in 1 h; 37 C, SA buffer pH 8.0, 100 mM NaCl, 5 mM MgCl2, 5 mM EDTA. The settings on record: tags: C-terminal 6xHis; N-terminal SV40 NLS; inferred). The protocol:
(§1) The LIG-34 meganucleases were assayed for in vitro activity by incubation with linear, double-stranded DNA substrates containing the meganuclease recognition sequence. Synthetic oligonucleotides corresponding to both sense and antisense strands of the LIG-34 recognition site (SEQ ID NO: 2, SEQ ID NO: 3) were annealed and cloned into the SmaI site of the pUC19 plasmid by blunt-end ligation. The plasmid substrate was linearized with XmnI concurrently with the meganuclease digest. The enzyme digests contained 5 μl of 0.05 μM DNA substrate, 5 μl of meganuclease at varying concentrations (diluted in SA buffer, see below), 14.5 μl SA buffer, and 0.5 μl XmnI. LIG-34 enzyme concentration was varied from 5-400 nM (final concentration). Digests were incubated at 37° C. for 1 hour. Digests were stopped by adding 0.3 mg/ml Proteinase K and 0.5% SDS, and incubated for one hour at 37° C. Digests were analyzed on 1.5% agarose and visualized by ethidium bromide staining.
(§2) Digestion of the linearized plasmid with LIG34, LIG34+ or LIG34++ meganuclease produced two bands on the gel of the sizes corresponding to a simple cut at the LIG-34 site. All of the LIG-34 meganucleases efficiently cut the plasmid substrate harboring the LIG-34 recognition site. […] Thus, while all three enzymes efficiently cleave the LIG-34 site sequence, they do so with varying activity levels (LIG-34<LIG-34+<LIG-34++).

For data set [2], the target named is T2, LIG-34+ meganuclease (Artificial Sequence (derived from …)).
T2 chain: T1 chain with E229T
Described as above. The settings on record: tags: C-terminal 6xHis; N-terminal SV40 NLS; inferred). Here is the method: as §1, §2

B1: LIG-34 recognition site (dsDNA)
DNA 1: TACGCGTACGTGTGAGGTATAT
DNA 2: ATATACCTCACACGTACGCGTA
The term EC50 denotes the concentration that produces a half-maximal response. High values mean weaker potency, low ones greater potency. For the molecule B1, the EC50 in data set [1] was roughly 16 nM; in data set [2], roughly 13 nM.
